Where no end group is shown, it is not given here. fluorescein = fluorescein moiety attached to the N-terminus of the peptide (N-terminal fluorescein label)
Assays:
Assay in all cases: fluorescence anisotropy equilibrium binding (Kd,app), ExoI variant titrated into fluorescein-labeled peptide
ExoI Glu318Ala variant = target: T1, ExoI Glu318Ala variant (Escherichia coli, UniProt P04995 1-475)
T1 construct: also called E318A; Glu318 variant
T1 sequence: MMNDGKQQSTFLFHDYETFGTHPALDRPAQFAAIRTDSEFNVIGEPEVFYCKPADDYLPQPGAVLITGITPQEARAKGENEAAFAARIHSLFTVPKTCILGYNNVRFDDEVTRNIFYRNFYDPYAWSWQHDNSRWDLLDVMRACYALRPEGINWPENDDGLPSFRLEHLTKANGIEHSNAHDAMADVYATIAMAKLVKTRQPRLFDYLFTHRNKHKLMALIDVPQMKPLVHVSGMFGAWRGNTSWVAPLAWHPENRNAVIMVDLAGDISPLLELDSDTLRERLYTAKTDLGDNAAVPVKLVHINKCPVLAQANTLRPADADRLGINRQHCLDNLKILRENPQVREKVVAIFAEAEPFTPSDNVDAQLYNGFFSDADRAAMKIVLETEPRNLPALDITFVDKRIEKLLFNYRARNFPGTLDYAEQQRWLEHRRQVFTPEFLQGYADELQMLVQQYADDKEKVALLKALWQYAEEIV

ExoI Arg148Ala variant = target: T2, ExoI Arg148Ala variant (Escherichia coli, UniProt P04995 1-475)
T2 construct: also called R148A; Arg148 variant
T2 sequence: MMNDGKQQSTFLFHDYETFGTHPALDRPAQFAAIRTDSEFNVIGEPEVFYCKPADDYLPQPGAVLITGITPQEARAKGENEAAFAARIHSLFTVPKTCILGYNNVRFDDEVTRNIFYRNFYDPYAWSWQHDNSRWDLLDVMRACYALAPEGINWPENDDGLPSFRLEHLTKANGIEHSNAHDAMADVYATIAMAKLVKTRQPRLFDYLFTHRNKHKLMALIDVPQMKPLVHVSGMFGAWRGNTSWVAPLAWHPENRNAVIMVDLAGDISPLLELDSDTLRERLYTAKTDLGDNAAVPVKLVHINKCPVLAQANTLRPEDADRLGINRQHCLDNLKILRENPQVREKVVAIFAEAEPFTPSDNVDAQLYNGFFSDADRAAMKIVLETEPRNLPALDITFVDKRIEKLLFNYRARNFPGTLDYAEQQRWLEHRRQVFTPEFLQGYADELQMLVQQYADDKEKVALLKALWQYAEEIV

ExoI Tyr207Ala variant = target: T3, ExoI Tyr207Ala variant (Escherichia coli, UniProt P04995 1-475)
T3 construct: also called Y207A; Tyr207 variant
T3 sequence: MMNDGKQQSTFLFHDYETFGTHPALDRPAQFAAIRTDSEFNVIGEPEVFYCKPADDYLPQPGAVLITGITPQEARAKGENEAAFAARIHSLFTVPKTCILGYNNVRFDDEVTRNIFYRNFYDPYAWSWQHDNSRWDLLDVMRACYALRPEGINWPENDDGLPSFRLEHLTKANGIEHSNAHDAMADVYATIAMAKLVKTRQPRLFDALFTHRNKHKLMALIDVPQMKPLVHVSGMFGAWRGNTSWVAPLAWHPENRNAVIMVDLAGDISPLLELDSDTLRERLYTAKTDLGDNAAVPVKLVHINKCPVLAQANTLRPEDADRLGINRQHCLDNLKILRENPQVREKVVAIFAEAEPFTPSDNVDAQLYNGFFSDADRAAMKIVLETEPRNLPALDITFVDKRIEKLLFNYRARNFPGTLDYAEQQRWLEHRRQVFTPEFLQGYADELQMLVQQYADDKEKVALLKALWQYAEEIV

ExoI Arg316Ala variant = target: T4, ExoI Arg316Ala variant (Escherichia coli, UniProt P04995 1-475)
T4 construct: residue flanks peptide A; also called R316A; Arg316 variant
T4 sequence: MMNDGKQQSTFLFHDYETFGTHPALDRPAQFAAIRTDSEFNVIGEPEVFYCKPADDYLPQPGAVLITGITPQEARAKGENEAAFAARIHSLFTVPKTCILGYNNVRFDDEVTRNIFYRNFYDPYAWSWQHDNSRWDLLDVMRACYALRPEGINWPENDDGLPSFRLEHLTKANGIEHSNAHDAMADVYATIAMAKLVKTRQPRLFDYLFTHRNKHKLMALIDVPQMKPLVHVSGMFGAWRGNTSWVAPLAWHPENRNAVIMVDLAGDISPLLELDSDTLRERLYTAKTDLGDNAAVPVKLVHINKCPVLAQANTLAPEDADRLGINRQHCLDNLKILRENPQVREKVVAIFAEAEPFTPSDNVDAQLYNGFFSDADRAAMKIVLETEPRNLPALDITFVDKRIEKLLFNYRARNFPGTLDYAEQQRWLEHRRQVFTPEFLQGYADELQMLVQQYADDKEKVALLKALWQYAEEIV

B1: fluorescein-labeled SSB C-terminal peptide (fluorescein-WMDFDDDIPF) (peptide)
peptide: fluorescein-WMDFDDDIPF
notes: also called F-SSB-Ct; F-WT
Kd (ExoI Glu318Ala variant): 0.08 µM | Kd (ExoI Arg148Ala variant): > 1 µM | Kd (ExoI Tyr207Ala variant): > 1 µM | Kd (ExoI Arg316Ala variant): > 1 µM
